Values of other authors as cited in publication PMC4031507.

Target: Cys+1 (UniProt position 252, VVKNKCLAEGT)

## RecA intein (Mtu RecA intein) with C-extein Cys+1 (Mycobacterium tuberculosis)
  pKa: 5.8
